Results published in patent US20240035022A1.

Molecular target: hCD52 peptide mimetope (affinity measurement of Table 1) (human)
Test: affinity on a hCD52 peptide mimetope, method not stated (footnote of Table 1)

Kd: 0.068 µM
Substance: Campath-1H (antibody)
